The results in this text go back to paper PMC7016264, “Redox requirements for ubiquitin-like urmylation of Ahp1, a 2-Cys peroxiredoxin from yeast” (Redox Biology, 2020).

This data set concerns the molecule itself. Put plainly: SEC-MALS; proteins reduced with 50 mM DTT, exchanged into 20 mM HEPES pH 7.5, 100 mM NaCl, 1 mM TCEP, diluted to 125 uM; dimer to monomers. (SEC sorts molecules by how far they enter the pores of the column.)

B1: His-tagged Ahp1, wild-type (recombinant) (enzyme, S. cerevisiae, UniProt P38013 1-176, looked up)
chain: MSDLVNKKFPAGDYKFQYIAISQSDADSESCKMPQTVEWSKLISENKKVIITGAPAAFSPTCTVSHIPGYINYLDELVKEKEVDQVIVVTVDNPFANQAWAKSLGVKDTTHIKFASDPGCAFTKSIGFELAVGDGVYWSGRWAMVVENGIVTYAAKETNPGTDVTVSSVESVLAHL
notes: Ahp1, 2-Cys peroxiredoxin of Saccharomyces cerevisiae; The printed mass of the His-tagged monomer is ~23.3 kDa (dimer 46.7 kDa) against ~19 kDa for untagged Ahp1, so vector-derived residues are probably present; also called wild-type Ahp1; wt Ahp1; source: E. coli, purified (His-tagged)
Broadly, the stoichiometry N is the number of molecules, sites or subunits per partner or assembly. For B1, the “stoichiometry N” value stood at 2.
